This passage reports Median fluorescence intensity (MFI) and fold less binding (against the anti-5T4 proteins) results from US20160304617A1.

In test [1] the target is Human 5T4 full length (human) (UniProt Q13641). Briefly: flow cytometry on DLD1 cells, 5 µg/ml probe, anti-Fc FITC. Background: In flow cytometry, cells or beads pass a laser one at a time.
Test [2] shares this target. Briefly: flow cytometry on PA1 cells, 5 µg/ml probe, anti-Fc FITC.
Test [3] has the same target. Briefly: flow cytometry on recombinant MDA-MB-231-5T4 FL cells at 5 µg/ml.
Test [4] shares this target. Kind of test: flow cytometry on MDAMB361 cells, 5 µg/ml probe, anti-Fc FITC.
For test [5] the target is unchanged. Briefly: flow cytometry on A431 cells, 5 µg/ml probe, anti-Fc FITC.
The target is the same in test [6]. Briefly: flow cytometry on HT29 cells, 5 µg/ml probe, anti-Fc FITC.
For test [7] the target is unchanged. Kind of test: flow cytometry on BxPC3 cells, 5 µg/ml probe, anti-Fc FITC.
For test [8] the target is unchanged. Kind of test: flow cytometry on PC3 cells, 5 µg/ml probe, anti-Fc FITC.
For test [9] the target is unchanged. Briefly: flow cytometry on Rec-MDA-MB-231-5T4 cells (as the row is labelled), 5 µg/ml probe, anti-Fc FITC.
Test [10] has the same target. Kind of test: flow cytometry on MBA-MB-231 cells (as the row is labelled), 5 µg/ml probe, anti-Fc FITC.
Test [11] has the same target. Kind of test: flow cytometry on LNCaP cells, 5 µg/ml probe, anti-Fc FITC.
Test [12] has the same target. Briefly: flow cytometry on SKOV3 cells, 5 µg/ml probe, anti-Fc FITC.

Sequence of UniProt Q13641 (Q13641 32-420): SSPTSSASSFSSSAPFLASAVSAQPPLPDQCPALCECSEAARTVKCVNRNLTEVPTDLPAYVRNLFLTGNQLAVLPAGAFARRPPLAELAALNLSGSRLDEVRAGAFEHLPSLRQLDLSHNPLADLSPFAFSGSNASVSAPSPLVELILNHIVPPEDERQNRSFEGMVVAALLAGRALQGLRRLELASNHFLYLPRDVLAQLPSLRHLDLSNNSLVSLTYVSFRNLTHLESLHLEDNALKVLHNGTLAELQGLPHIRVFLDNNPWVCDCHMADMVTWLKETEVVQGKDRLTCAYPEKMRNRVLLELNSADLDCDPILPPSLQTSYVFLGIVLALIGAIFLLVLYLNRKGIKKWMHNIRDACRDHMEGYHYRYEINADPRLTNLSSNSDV

For unrelated (control) Fc fusion protein, the Median fluorescence intensity (MFI) in [1] was 14 MFI; in test [2], 6 MFI; in [4], 5 MFI; in test [5] it was 13 MFI; in test [6] it was 12 MFI; in [7], 14 MFI. For the same substance, the Median fluorescence intensity (MFI) in test [8] amounted to 3 MFI; in test [9], 8 MFI; in test [10], 4 MFI; in test [11], 23 MFI; in [12] it was 6 MFI. Moreover, the fold less binding (against the anti-5T4 proteins) in [3] was 200 fold.
